Among the data in PMC12521514 are stoichiometry N values, retold here.

In general, stoichiometry N refers to a count of units in the complex or per binding partner.

Assay [1] addresses ClpP-N12A (Staphylococcus aureus) (UniProt Q2G036). Nature of the assay: negative stain EM.
Assay [2] addresses T1, Staphylococcus aureus ClpP wild type (Staphylococcus aureus), Q2G036.
T1 chain: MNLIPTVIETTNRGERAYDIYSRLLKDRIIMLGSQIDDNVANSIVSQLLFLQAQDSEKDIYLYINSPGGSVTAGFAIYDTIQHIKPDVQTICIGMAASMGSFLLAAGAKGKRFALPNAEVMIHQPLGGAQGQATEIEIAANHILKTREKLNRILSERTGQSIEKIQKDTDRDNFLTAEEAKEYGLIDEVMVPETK
Conditions: remark: other sources report otherwise.

For “ClpP-N12A (from UniProt Q2G036) (enzyme)”, the stoichiometry N in assay [1] worked out at 14.

B1: Staphylococcus aureus ClpP wild type, Q2G036 1-195 (enzyme)
chain: T1 chain
As to B1, in assay [2], the stoichiometry N came out at 14.
